Consider one substance from paper PMC10599278.

The conditions of the series: ubiquitination at K213.

In the case of IGF2BP3: K213R, the other entry was “decreases”.
